From patent publication US10888547B2, “Amorphous and a crystalline form of genz 112638 hemitartrate as inhibitor of glucosylceramide synthase” (Genzyme Corporation, priority 2009, dated 2021)

Legend:
[1] = Hygroscopicity of salts and free base; format: physicochemical
Aqueous solubility = format: physicochemical; details: in water
cytochrome P450 enzymes = assay: Hepatic metabolism by cytochrome P450 enzymes; format: in vitro ADME, human; details: liver
Description: Cytochrome P450s (“CYPs”) are the principal hepatic xenobiotic metabolizing enzymes. There are eleven xenobiotic-metabolizing cytochrome P450s expressed in a typical human liver (i.e., CYP1A2, CYP2A6, CYP2B6, CYP2C8/9/18/19, CYP2D6, CYP2E1 and CYP3A4/5). […] The level of activity of P450 enzymes differs according to the individual. For example, individuals can be classified as poor, intermediate and extensive/ultra rapid P450 metabolizers. Because lower levels of P450 activity in an individual can give rise to drug/drug interactions (“DDI”), another embodiment of the invention is to determine whether the subject is a poor, intermediate and extensive/ultra rapid P450 metabolizer. […] The dose can raised incrementally and the subject retested once, twice, three, four or as many times as necessary to achieve an adjusted effective dose.

Fabry-Rag mice = assay: Combination ERT/SRT therapy of Fabry-Rag mice; format: in vivo, mouse; details: ERT 1 mg/kg α-galactosidase A i.v., SRT 300 mg/kg daily in diet
Protocol: For the combination therapy studies, Fabry-Rag mice were put on study at 3 months old (treatment model). Mice in group A received intravenous injections of recombinant human alpha-galactosidase A (Genzyme Corp.) at a dose of 1 mg/kg every 2 months (i.e. 3, 5, 7 and 9 months old). Group B received the same intravenous enzyme doses plus it received Formula (I) Hemitartrate (Genzyme Corp., Cambridge, Mass.) as a component of the pellet food diet. The drug was formulated at 0.15% (w/w) in standard 5053 mouse chow (TestDiet, Richmond, Ind.) and provided ad libitum. […] Group C received enzyme injections every 4 months (i.e. 3 and 7 months old) and was on the same drug-in-food diet as group B. Group D received only the drug-in-food diet (same as groups B and C). Group E was untreated Fabry-Rag mice and group F were wild-type controls.
Quantitation of GL-3 was by Tandem Mass Spectrometry essentially as for GL-1.
Hot plate Assay was performed as described previously (Ziegler, R J et al. Molec. Ther. 15(3), 492-500 (2007).
Beginning at three-months of age, the mice were subjected to a schedule of behavioral tests (i.e. hot-plate assay) and biochemical tests (i.e., GL-3 level analysis in tissues/blood/urine), as shown in FIG. 10.

[2] = test system: Gaucher mice (D409V/null); assay: Separate and sequential enzyme and substrate reduction therapy in Gaucher mice; format: in vivo, mouse
Description: Procedures involving animals were reviewed and approved by the Institutional Animal Care and Use Committee (IACUC) at Genzyme Corporation following the guidelines issued by the Association for Assessment and Accreditation of Laboratory Animal Care (AAALAC). […] The study had 6 groups of mice with group A being sacrificed after 2 weeks to provide baseline levels of tissue glucosylceramide. Groups B, C, and D all received recombinant human glucocerebrosidase (Genzyme Corp., Cambridge, Mass.) (10 mg/kg) intravenously via a tail-vein (100 μL) every 2 days for a total of 8 injections. Group B was sacrificed at the end of this regimen (at the same time as group A) to provide enzyme-reduced levels of tissue glucosylceramide. Groups D and E were both fed Formula (I) Hemitartrate (Genzyme Corp., Cambridge, Mass.) as a component of the pellet food diet. The drug was formulated at 0.075% (w/w) in standard 5053 mouse chow (TestDiet, Richmond, Ind.) and provided ad libitum. […] Group F received no treatment and was sacrificed along with groups C, D and E 12 weeks after the start of the study. Food consumption and mouse weights were monitored three times per week to determine drug intake and the potential impact of the drug on overall health. Animals were killed by carbon dioxide inhalation and their tissues harvested immediately. Half of each tissue was snap frozen on dry ice and stored at −80° C. until ready for further processing. The other half was processed for histological analysis.
Glucosylceramide levels were quantified by mass spectrometry as described previously (see K. McEachern, et al., J. Gene. Med. 8 (2006) 719-729; T. Doering, J. Biol. Chem. 274 (1999) 11038-11045, the entire teachings of both are incorporated herein by reference). A known mass of tissue was homogenized in 2:1 (v/v) chloroform:methanol and incubated at 37° C. for 15 min. Samples were centrifuged and the supernatants were extracted with 0.2 volumes of water overnight at 4° C. The samples were centrifuged, the aqueous phase was discarded, and the organic phase was dried down to a film under nitrogen. For electrospray ionization mass spectrometry (ESI/MS) analysis, tissue samples were reconstituted to the equivalent of […] original tissue weight in 1 ml chloroform:methanol (2:1, v/v) and vortexed for 5 min. Aliquots (40 μL) of each sample were delivered to Waters total recovery vials and 50 μL of a 10 μg/mL d3-C16-GL-1 internal standard (Matreya, Inc., Pleasant Gap, Pa.) was added. Samples were dried under nitrogen and reconstituted with 200 μL of 1:4 (v/v) DMSO:methanol. ESI/MS analysis of glucosylceramides of different carbon chain lengths was performed on a Waters alliance HPLC (Separation Module 2695) coupled to a Micromass Quattro Micro system equipped with an electrospray ion source. Lipid extract samples (20 μL) were injected onto a C8 column ([…] i.d; Phenomenex, Torrance, Calif.) at 45° C. and eluted with a gradient of 50 to 100% acetonitrile (2 mM ammonium acetate, 0.1% formic acid) at 0.5 mL/min. The first 0.5 min. was held at 50% organic and then quickly switched to 100% for the final 3.5 min. The source temperature was held constant at 150° C. and nitrogen was used as the desolvation gas at a flow rate of 670 L/h. The capillary voltage was maintained at 3.80 KV with a cone voltage of 23 V, while the dwell time for each ion species was 100 ms. Spectra were acquired by the MRM mode to monitor eight dominant isoforms (C16:0, C18:0, C20:0, C22:1, C22:0, C22:1-OH, C24:1, and C24:0). Quantitation of glucosylceramide was based on the sum of these eight isoforms relative to the internal standard, with a calibration curve ranging from 0.1 to 10 μg/mL.
For histological analysis, tissues were fixed in zinc formalin (Electron Microscopy Sciences, Hatfield, Pa.) at room temperature for 24 h, then stored in PBS at 4° C. until ready for further processing. […]

[3] = test system: Gaucher mice (D409V/null); assay: Glucocerebrosidase dosing regimen for debulking GL1 in Gaucher mice; format: in vivo, mouse; details: for reduction of GL1 levels in the liver: 7 days after last infusion
Protocol: To investigate the relative merits of combination and monotherapy with either enzyme or substrate reduction therapy, the enzyme regimen that maximally depleted GL1 levels in the visceral organs of Gaucher mice was first determined. Three month-old Gaucher mice (D409V/null) were intravenously administered 2, 4 or 8 doses of 10 mg/kg recombinant human glucocerebrosidase. The mice that were treated with 2 or 4 doses of the enzyme received drug infusions every 3 days while those that were treated with 8 doses received the enzyme every 2 days. The use of a shorter time interval between infusions in animals that received 8 treatments was designed to minimize the potential impact of any immune response to the administered human enzyme. The animals were killed 7 days following the last enzyme infusion and the amount of GL1 remaining in their livers, spleens, and lungs were measured.

CCCCCCCC(=O)N[C@H](CN1CCCC1)[C@H](O)c1ccc2c(c1)OCCO2 [hydrochloric acid (1:1)]
hygroscopicity of the solid salt ([1]; salt screen, Example 1): hygroscopic

CCCCCCCC(=O)N[C@H](CN1CCCC1)[C@H](O)c1ccc2c(c1)OCCO2 [Formula (I) Free Base]
Aqueous solubility (Aqueous solubility): 40 µg/mL | primary cytochrome P450 isoforms responsible for de-toxifying the compound (cytochrome P450 enzymes): CYP2D6 and CYP3A4 | Hygroscopicity (40° C./75% RH) ([1]; 40° C./75% RH): None

B1: ERT: enzyme replacement therapy in Fabry-Rag mice: recombinant human alpha-galactosidase A (Genzyme Corp.), 1 mg/kg intravenous (protein, UniProt P06280 32-429, looked up)
Alpha-galactosidase A: LDNGLARTPTMGWLHWERFMCNLDCQEEPDSCISEKLFMEMAELMVSEGWKDAGYEYLCIDDCWMAPQRDSEGRLQADPQRFPHGIRQLANYVHSKGLKLGIYADVGNKTCAGFPGSFGYYDIDAQTFADWGVDLLKFDGCYCDSLENLADGYKHMSLALNRTGRSIVYSCEWPLYMWPFQKPNYTEIRQYCNHWRNFADIDDSWKSIKSILDWTSFNQERIVDVAGPGGWNDPDMLVIGNFGLSWNQQVTQMALWAIMAAPLFMSNDLRHISPQAKALLQDKDVIAINQDPLGKQGYQLRQGDNFEVWERPLSGLAWAVAMINRQEIGGPRSYTIAVASLGKGVACNPACFITQLLPVKRKLGFYEWTSRLRSHINPTGTVLLQLENTMQMSLKDLL
onset of heat-insensitivity (Fabry-Rag mice): not | urine GL-3 levels (Fabry-Rag mice): does not | blood GL-3 levels (Fabry-Rag mice; from 3 months of age): reduces

B2: recombinant glucocerebrosidase: recombinant human glucocerebrosidase (Genzyme Corp.), enzyme therapy given to Gaucher mice (protein, UniProt P04062 40-536, looked up)
Lysosomal acid …: ARPCIPKSFGYSSVVCVCNATYCDSFDPPTFPALGTFSRYESTRSGRRMELSMGPIQANHTGTGLLLTLQPEQKFQKVKGFGGAMTDAAALNILALSPPAQNLLLKSYFSEEGIGYNIIRVPMASCDFSIRTYTYADTPDDFQLHNFSLPEEDTKLKIPLIHRALQLAQRPVSLLASPWTSPTWLKTNGAVNGKGSLKGQPGDIYHQTWARYFVKFLDAYAEHKLQFWAVTAENEPSAGLLSGYPFQCLGFTPEHQRDFIARDLGPTLANSTHHNVRLLMLDDQRLLLPHWAKVVLTDPEAAKYVHGIAVHWYLDFLAPAKATLGETHRLFPNTMLFASEACVGSKFWEQSVRLGSWDRGMQYSHSIITNLLYHVVGWTDWNLALNPEGGPNWVRNFVDSPIIVDITKDTFYKQPMFYHLGHFSKFIPEGSQRVGLVASQKNDLDAVALMHPDGSAVVVVLNRSSKDVPLTIKDPAVGFLETISPGYSIHTYLWRRQ
liver histopathology, CD68-positive Gaucher cells ([2]; 2 weeks enzyme, then 10 weeks without further treatment): re-emergence of Gaucher cells | liver histopathology, CD68-positive Gaucher cells ([2]; enzyme over a period of 2 weeks): substantial clearance of the lipid | stored GL1 levels cleared from the liver ([2]; group B: 8 doses of 10 mg/kg enzyme over 2 weeks): Approximately 80% | reduction of splenic GL1 levels ([2]; group B: enzyme alone for 2 weeks): approximately 60% | reduction in substrate (GL1) levels in the lung ([2]; group B: enzyme for 2 weeks): 30% | splenic GL1 levels versus untreated control (F) ([2]; group C: 2 weeks enzyme, then 10 weeks without further intervention): not significantly different | liver GL1 levels versus untreated controls (F) ([2]; group C: 2 weeks enzyme, then 10 weeks without further treatment): not significantly different | lung GL1 levels versus untreated levels (F) ([2]; group C: 2 weeks enzyme, then normal chow for 10 weeks): not significantly different | splenic GL1 levels versus untreated controls ([3]; 2 doses of 10 mg/kg i.v.): did not significantly alter | reduction of GL1 levels in the liver ([3]; 2 doses of 10 mg/kg i.v. every 3 days): 50% | reduction of splenic GL1 levels ([3]; 4 or 8 doses of 10 mg/kg i.v.): about 50% | reduction of GL1 levels in the liver ([3]; 4 or 8 doses of 10 mg/kg i.v.): approximately 75% | lung GL1, reduction to % of untreated control ([3]; 8 doses of 10 mg/kg i.v. every 2 days): approximately 60%
